# Reference: US20220323583A1, “Pharmaceutical Formulations of Bi-Specific Diabodies and Use of the Same” (MacroGenics, Inc., priority 2019, published 2022)
# T1: recombinant Interleukin 3 Receptor (rhIL3-R) (Homo sapiens, UniProt P26951)
# T1 construct: The soluble IL3R was coated on the surface of an ELISA plate
# T1 sequence (P26951 19-305 limits assumed): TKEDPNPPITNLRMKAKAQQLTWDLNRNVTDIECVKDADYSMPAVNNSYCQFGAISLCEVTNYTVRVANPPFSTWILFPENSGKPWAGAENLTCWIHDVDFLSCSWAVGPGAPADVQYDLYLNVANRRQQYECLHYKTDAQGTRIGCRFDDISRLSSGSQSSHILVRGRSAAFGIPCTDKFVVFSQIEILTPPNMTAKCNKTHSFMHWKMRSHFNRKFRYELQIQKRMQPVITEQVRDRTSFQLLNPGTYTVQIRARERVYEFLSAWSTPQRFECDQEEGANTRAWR
# Key:
# [1] = target: T1, recombinant Interleukin 3 Receptor (rhIL3-R); experiment: CD123 binding ELISA (relative potency); conditions: Relative Potency vs DART-A reference standard, 1250 ng/mL dosing solution, Stabilizer 2
# Description: The soluble IL3R was coated on the surface of an ELISA plate. […] Quantification of bound probe antibody was achieved by addition of a colorimetric AP substrate (AP-Yellow 1 Component Substrate). Oxidation of AP-Yellow by AP yields a colored product that can be read at 405±10 nm. The assay was quantified by the intensity of color, measured using a spectrophotometer set to an optimal wavelength of 405±10 nm. Data were fitted to a four-parameter model with the following variable constraints: the maximum, minimum and slope of each dose response curve is set to be shared between all dose response curves on the plate; the EC50 was determined independently for each curve.
# [2] = system: primary ALL bone marrow samples; experiment: Incubation of primary ALL bone marrow samples with DART-A; format: cell-based, human; conditions: vs untreated control or Control DART
# Description: Upregulation of granzyme B and perforin levels in both CD8 and CD4 T cells was observed.
# HT29 = experiment: Redirected killing of target cell line; format: cell-based; conditions: HT29 (CD123 negative)
# [3] = Differential scanning calorimetry (DSC), thermal stability; format: physicochemical; conditions: DP buffer with or without PS80 (150 mM NaCl, 10 mM sodium phosphate, pH 6.0)
# Procedure: Differential Scanning calorimetry measures the energetics of protein unfolding during a temperature ramp. Peaks represent apparent melting temperatures and the area under the peaks represent the enthalpy of the thermal transition. Data were collected for duplicate samples over 20° C. to 90° C. range using temperature ramp rate of 60° C./hour.
# [4] = Sub-visible particle count, light obscuration (HIAC); format: physicochemical; conditions: for Subvisible Particles by USP <788> ≥2 μm/mL / Subvisible Particles by USP <788> ≥10 μm/mL / Subvisible Particles by USP <788> ≥25 μm/mL: Stabilizer 2; for Particle Counts/mL ≥10 μm / Particle Counts/mL ≥25 μm: Study 1, dual-pump infusion
# Molm13 = experiment: Redirected killing of target cell line; format: cell-based
# MOLM13 tumors = experiment: Human T cells and Molm13 tumor cells injected subcutaneously into NSG mice; format: in vivo, NOD/SCID gamma (NSG) knockout mice
# Procedure: A dose of 0.004 mg/kg and higher was active in the MOLM13 model.
# [5] = system: soluble recombinant human CD3 (shCD3-Fos-Jun); experiment: CD3 binding ELISA (relative potency); conditions: Relative Potency vs DART-A reference standard, 1250 ng/mL dosing solution, Stabilizer 2
# Description: The two CD3 chains (delta and gamma) contain either the Fos protein or the Jun protein to enhance proper folding and functionality of the CD3 complex. […] The soluble CD3-Fos-Jun, was coated on the surface of an ELISA plate. […] Quantification of bound probe antibody was achieved by addition of a colorimetric AP substrate (AP-Yellow 1 Component Substrate). Oxidation of AP-Yellow by AP yields a colored product that can be read at 405±10 nm. The assay was quantified by the intensity of color, measured using a spectrophotometer set to an optimal wavelength of 405±10 nm. Data were fitted to a four-parameter model with the following variable constraints: the maximum, minimum and slope of each dose response curve is set to be shared between all dose response curves on the plate; the EC50 was determined independently for each curve.
# [6] = SE-HPLC (protein aggregation: % main peak, % HMW, % LMW); format: physicochemical; conditions: for FLR SE-HPLC % HMW / FLR SE-HPLC % LMW / FLR SE-HPLC % Main Peak: 0.1 mg/mL solution, Stabilizer 2
# Procedure: FLR SE-HPLC analysis was performed to measure protein purity, monomer purity and protein stability. The FLR SE-HPLC configuration included a fluorescence (FLR) detector (λX=280 nm, λE=340 nm), a mobile phase composition of 350 mM Mobile Phase (175 mMNaH2PO4, 175 mMNa2SO, pH 6.3) and a TosoBio TSK G3000SWXL size exclusion column. Samples were diluted to 0.1 mg/mL and stored at 5±3° C. for 24 to 96 hours prior to analysis. Eight μg of protein (or 100 μL is sample concentration was below 0.1 mg/mL) was injected for each 30-minute run. HMW and LMW species and monomer peaks were monitored.
# [7] = Post Infusion (Infusion Time = 48 Hrs)
# [8] = Post Storage (T = 72 Hrs), room temperature
# [9] = 10 ng/mL dosing solution, Post Infusion (Infusion Time = 48 Hrs)
# [10] = 10 ng/mL dosing solution, Post Storage (T = 72 Hrs), room temperature
# [11] = 10 ng/mL dosing solution, T = 0
# [12] = 20 ng/mL dosing solution, Post Infusion (Infusion Time = 96 Hrs)
# [13] = 20 ng/mL dosing solution, Post Storage (T =72 Hrs), room temperature
# [14] = 20 ng/mL dosing solution, T = 0
# [15] = 1250 ng/mL dosing solution, Post Infusion (Infusion Time = 48 Hrs)
# [16] = 1250 ng/mL dosing solution, Post Storage (T = 72 Hrs), room temperature
# [17] = 1250 ng/mL dosing solution, T = 0
# [18] = High (5000 ng/mL), T = 24 hours
# [19] = High (5000 ng/mL), T = 48 hours
# [20] = High (5000 ng/mL), T = 72 hours
# [21] = Post Infusion (Infusion Time = 96 Hrs)
# [22] = Post Storage (Time = 72 Hrs), room temperature
# Chain of soluble recombinant human CD3 (shCD3-Fos-Jun) (P07766 23-126 limits assumed): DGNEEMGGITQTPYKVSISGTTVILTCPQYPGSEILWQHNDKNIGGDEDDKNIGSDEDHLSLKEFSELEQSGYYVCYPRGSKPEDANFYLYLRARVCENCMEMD
molecule,measurement,setting,value
"DART-A: sequence-optimized CD123×CD3 bispecific diabody; chains SEQ ID NO:42 and SEQ ID NO:44 covalently bonded by a disulfide bond (protein, interchain disulfide bond; First Polypeptide Chain of DART-A; Second Polypeptide Chain of DART-A) chain 1: QAVVTQEPSLTVSPGGTVTLTCRSSTGAVTTSNYANWVQQKPGQAPRGLIGGTNKRAPWTPARFSGSLLGGKAALTITGAQAEDEADYYCALWYSNLWVFGGGTKLTVLGGGGSGGGGEVQLVQSGAELKKPGASVKVSCKASGYTFTDYYMKWVRQAPGQGLEWIGDIIPSNGATFYNQKFKGRVTITVDKSTSTAYMELSSLRSEDTAVYYCARSHLLRASWFAYWGQGTLVTVSSGGCGGGEVAALEKEVAALEKEVAALEKEVAALEK chain 2: DFVMTQSPDSLAVSLGERVTMSCKSSQSLLNSGNQKNYLTWYQQKPGQPPKLLIYWASTRESGVPDRFSGSGSGTDFTLTISSLQAEDVAVYYCQNDYSYPYTFGQGTKLEIKGGGSGGGGEVQLVESGGGLVQPGGSLRLSCAASGFTFSTYAMNWVRQAPGKGLEWVGRIRSKYNNYATYYADSVKDRFTISRDDSKNSLYLQMNSLKTEDTAVYYCVRHGNFGNSYVSWFAYWGQGTLVTVSSGGCGGGKVAALKEKVAALKEKVAALKEKVAALKE","% Potency, CD123 binding",[1]; [7],123%
same,"% Potency, CD123 binding",[1]; [8],140%
same,"% Potency, CD123 binding",[1]; T = 0,146%
same,leukemic cell population,[2],depletion of the leukemic cell population over time
same,Max % Killing,HT29,No activity
same,"EC50, redirected killing",HT29; E:T = 10:1,No activity
same,"melting temperature (Tm), DSC",[3],64 °C
same,Subvisible Particles by USP <788> ≥2 μm/mL,[4]; [9],140 mL⁻¹
same,Subvisible Particles by USP <788> ≥10 μm/mL,[4]; [9],2 mL⁻¹
same,Subvisible Particles by USP <788> ≥25 μm/mL,[4]; [9],1 mL⁻¹
same,Subvisible Particles by USP <788> ≥2 μm/mL,[4]; [10],192 mL⁻¹
same,Subvisible Particles by USP <788> ≥10 μm/mL,[4]; [10],10 mL⁻¹
same,Subvisible Particles by USP <788> ≥25 μm/mL,[4]; [10],1 mL⁻¹
same,Subvisible Particles by USP <788> ≥2 μm/mL,[4]; [11],206 mL⁻¹
same,Subvisible Particles by USP <788> ≥10 μm/mL,[4]; [11],7 mL⁻¹
same,Subvisible Particles by USP <788> ≥25 μm/mL,[4]; [11],1 mL⁻¹
same,Subvisible Particles by USP <788> ≥2 μm/mL,[4]; [12],85 mL⁻¹
same,Subvisible Particles by USP <788> ≥10 μm/mL,[4]; [12],9 mL⁻¹
same,Subvisible Particles by USP <788> ≥25 μm/mL,[4]; [12],3 mL⁻¹
same,Subvisible Particles by USP <788> ≥2 μm/mL,[4]; [13],412 mL⁻¹
same,Subvisible Particles by USP <788> ≥10 μm/mL,[4]; [13],8 mL⁻¹
same,Subvisible Particles by USP <788> ≥25 μm/mL,[4]; [13],0 mL⁻¹
same,Subvisible Particles by USP <788> ≥2 μm/mL,[4]; [14],344 mL⁻¹
same,Subvisible Particles by USP <788> ≥10 μm/mL,[4]; [14],8 mL⁻¹
same,Subvisible Particles by USP <788> ≥25 μm/mL,[4]; [14],0 mL⁻¹
same,Subvisible Particles by USP <788> ≥2 μm/mL,[4]; [15],188 mL⁻¹
same,Subvisible Particles by USP <788> ≥10 μm/mL,[4]; [15],4 mL⁻¹
same,Subvisible Particles by USP <788> ≥25 μm/mL,[4]; [15],1 mL⁻¹
same,Subvisible Particles by USP <788> ≥2 μm/mL,[4]; [16],146 mL⁻¹
same,Subvisible Particles by USP <788> ≥10 μm/mL,[4]; [16],7 mL⁻¹
same,Subvisible Particles by USP <788> ≥25 μm/mL,[4]; [16],1 mL⁻¹
same,Subvisible Particles by USP <788> ≥2 μm/mL,[4]; [17],664 mL⁻¹
same,Subvisible Particles by USP <788> ≥10 μm/mL,[4]; [17],21 mL⁻¹
same,Subvisible Particles by USP <788> ≥25 μm/mL,[4]; [17],1 mL⁻¹
same,"subvisible particle counts ≥2 μm, ≥10 μm and ≥25 μm post-infusion vs T=0",[4]; Stabilizer 2 dosing solutions,did not increase
same,Particle Counts/mL ≥10 μm,"[4]; High (5000 ng/mL), T = 0",14 Counts/mL
same,Particle Counts/mL ≥25 μm,"[4]; High (5000 ng/mL), T = 0",1 Counts/mL
same,Particle Counts/mL ≥10 μm,[4]; [18],2 Counts/mL
same,Particle Counts/mL ≥25 μm,[4]; [18],1 Counts/mL
same,Particle Counts/mL ≥10 μm,[4]; [19],0 Counts/mL
same,Particle Counts/mL ≥25 μm,[4]; [19],0 Counts/mL
same,Particle Counts/mL ≥10 μm,[4]; [20],0 Counts/mL
same,Particle Counts/mL ≥25 μm,[4]; [20],0 Counts/mL
same,Particle Counts/mL ≥10 μm,"[4]; Low (100 ng/mL), T = 0",5 Counts/mL
same,Particle Counts/mL ≥25 μm,"[4]; Low (100 ng/mL), T = 0",0 Counts/mL
same,Particle Counts/mL ≥10 μm,"[4]; Low (100 ng/mL), T = 24 hours",4 Counts/mL
same,Particle Counts/mL ≥25 μm,"[4]; Low (100 ng/mL), T = 24 hours",1 Counts/mL
same,Particle Counts/mL ≥10 μm,"[4]; Low (100 ng/mL), T = 48 hours",7 Counts/mL
same,Particle Counts/mL ≥25 μm,"[4]; Low (100 ng/mL), T = 48 hours",0 Counts/mL
same,Particle Counts/mL ≥10 μm,"[4]; Low (100 ng/mL), T = 72 hours",1 Counts/mL
same,Particle Counts/mL ≥25 μm,"[4]; Low (100 ng/mL), T = 72 hours",0 Counts/mL
same,Max % Killing,Molm13,43%
same,MOLM13 tumor growth,"MOLM13 tumors; 0.16, 0.5, 0.2, 0.1, 0.02 and 0.004 mg/kg dose levels",significantly inhibited
same,dose active in the MOLM13 model,"MOLM13 tumors; mouse, in vivo",≥ 4 µg/kg
same,"% Potency, CD3 binding",[5]; [7],92%
same,"% Potency, CD3 binding",[5]; [8],101%
same,"% Potency, CD3 binding",[5]; T = 0,111%
same,SE-HPLC species,"[6]; 0.1 mg/mL in Stabilizer 2 dosing solution, 72-hour RT storage and administration",no changes in the LMW and LMW
same,FLR SE-HPLC % HMW,[6]; [21],0.9%
same,FLR SE-HPLC % LMW,[6]; [21],0.9%
same,FLR SE-HPLC % Main Peak,[6]; [21],98.2%
same,FLR SE-HPLC % HMW,[6]; [22],0.8%
same,FLR SE-HPLC % LMW,[6]; [22],0.9%
same,FLR SE-HPLC % Main Peak,[6]; [22],98.4%
same,FLR SE-HPLC % HMW,[6]; T = 0 Hrs,0.8%
same,FLR SE-HPLC % LMW,[6]; T = 0 Hrs,0.9%
same,FLR SE-HPLC % Main Peak,[6]; T = 0 Hrs,98.4%
